Data from US20240417450A1 (UNIVERSITY OF TOKYO, published 2024).
Changes are numbered by the printed parent chain.

T1: E. coli wild-type SHMT, GST fusion protein (E. coli, UniProt P0A825 1-417)
T1 construct: Overexpressed in E. coli as a GST fusion protein, purified and immobilised on the ELISA plate at 2 ug/ml; not shown: Glutathione-S-transferase (GST) fusion partner
T1 sequence: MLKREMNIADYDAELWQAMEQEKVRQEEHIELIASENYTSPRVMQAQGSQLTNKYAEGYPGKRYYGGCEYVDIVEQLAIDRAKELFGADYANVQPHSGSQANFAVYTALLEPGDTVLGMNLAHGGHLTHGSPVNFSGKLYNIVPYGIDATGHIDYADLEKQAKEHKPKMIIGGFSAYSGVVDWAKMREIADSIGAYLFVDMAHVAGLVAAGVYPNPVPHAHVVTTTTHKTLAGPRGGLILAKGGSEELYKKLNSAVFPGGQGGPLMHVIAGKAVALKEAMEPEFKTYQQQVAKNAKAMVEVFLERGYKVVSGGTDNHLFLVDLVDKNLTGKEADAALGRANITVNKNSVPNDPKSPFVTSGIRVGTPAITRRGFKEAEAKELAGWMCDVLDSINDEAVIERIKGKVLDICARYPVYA

T2: E. coli iPGM (E. coli, UniProt P37689 1-514, limits assumed)
T2 sequence (looked up): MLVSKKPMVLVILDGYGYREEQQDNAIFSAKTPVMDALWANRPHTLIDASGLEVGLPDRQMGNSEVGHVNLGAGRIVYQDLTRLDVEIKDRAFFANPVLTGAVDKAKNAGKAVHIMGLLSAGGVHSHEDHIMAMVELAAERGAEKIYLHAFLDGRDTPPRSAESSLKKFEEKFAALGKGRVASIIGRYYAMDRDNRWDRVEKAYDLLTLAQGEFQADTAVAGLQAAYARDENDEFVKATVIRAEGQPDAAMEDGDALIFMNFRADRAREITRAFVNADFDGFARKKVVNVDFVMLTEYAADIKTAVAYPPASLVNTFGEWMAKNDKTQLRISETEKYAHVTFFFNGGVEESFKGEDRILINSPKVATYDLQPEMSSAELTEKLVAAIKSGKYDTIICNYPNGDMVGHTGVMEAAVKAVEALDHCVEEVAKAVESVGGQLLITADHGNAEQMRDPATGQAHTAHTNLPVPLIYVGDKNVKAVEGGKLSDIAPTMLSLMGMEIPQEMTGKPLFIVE

T3: C. difficile iPGM (486-509) (C. difficile)
T3 construct: Final purified peptide used for crystallisation
T3 peptide: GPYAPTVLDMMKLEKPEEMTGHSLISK

T4: E. coli SHMT (25-45) (E. coli)
T4 construct: Final purified peptide used for crystallisation
T4 peptide: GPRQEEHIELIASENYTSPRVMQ

B1: RS_H007_L001 (antibody, V domains shown)
VH: EVQLQQSGSELVKSGASVKLSCTVSGFNFTNYYIHWVRQRTEQGLEWIGRIDPENNQTTYAPKFQGKATMTADTSSNTAYLQLTSLTSEDTAVYYCARSTVLDYWGHGTTLTVSS
VL: DVLMTQSPASLSVSLGDRATISCRASQSIVHTNGNTYLEWYLQKPGQSPKLLIYKVSNRFSGVPDRFSGSGSGTDFILKISRVEAEDLGVYYCFQGSHVPPTFGGGTKLEVK
B2: W27G2 antibody (mouse hybridoma-producing IgA) (antibody, V domains shown)
VH: B1 VH with N31D, N56D, Q57E
VL: DVLMTQTPLSLPVSLGDQASISCRASQSIVHTNGNTYLEWYLQKPGQSPKLLIYKVSNRFSGVPDRFSGSGSGTDFILKISRVEAEDLGVYYCFQGSHVPPTFGGGTKLEVKR
notes: Hybridoma-producing IgA from intestinal mucosa lamina propria B cells; also called W27 antibody; W27G2-CHT
B3: RS_H000_L000GR Fab (Fab, V domains shown)
VH: B1 VH with N31D, N56D, Q57E
VL: B1 VL with S7T, A9L, S12P, R18Q, T20S
notes: Fab made by papain digestion of the W27 recombinant IgG expressed in CHO cells; also called IgG W27 Fab
B4: RS_H000_L001 (antibody, V domains shown)
VH: B1 VH with N31D, N56D, Q57E
VL: B1 VL
notes: recombinant multimeric IgA made with H, L and J chain vectors (mainly dimers by SDS-PAGE); also called rW27
B5: RS_H007_L005 (antibody, V domains shown)
VH: B1 VH
VL: B1 VL with A25S
B6: RS_H007_L002 (antibody, V domains shown)
VH: B1 VH
VL: B1 VL with A19V
B7: RS_H007_L004 (antibody, V domains shown)
VH: B1 VH
VL: B1 VL with L11M, A25S
B8: RS_H000_L005 (antibody, V domains shown)
VH: B1 VH with N31D, N56D, Q57E
VL: B1 VL with A25S

What was measured:
[1] = biological target: T1, E. coli wild-type SHMT, GST fusion …; experiment: ELISA, GST fusion protein immobilised at 2 ug/ml, antibody dilution series
E. coli iPGM = biological target: T2, E. coli iPGM; experiment: Western blot
[2] = biological target: T3, C. difficile iPGM (486-509); experiment: X-ray crystal structure of the Fab-peptide complex
E. coli SHMT (25-45) = biological target: T4, E. coli SHMT (25-45); experiment: X-ray crystal structure of the Fab-peptide complex

Binder | binding result [1] | further results
B1 | binds | 
B2 | binds | binding result (E. coli iPGM): no binding
B3 |  | binding result [2]: binds; binding result (E. coli SHMT (25-45)): binds
B4 | binds | 
B5 | binds | 
B6 | binds | 
B7 | binds | 
B8 | binds | 
